{
  "source": "patent US9969998B2",
  "about": "“Compositions of adenosine deaminase-2 (ADA2), variants thereof and methods of using same” (Halozyme, Inc., priority 2014, dated 2018)",
  "key": {"[1]": {"biological_target": "T1, ADA2 (Homo sapiens, UniProt Q9NZK5)", "T1 sequence (Q9NZK5 30-511)": "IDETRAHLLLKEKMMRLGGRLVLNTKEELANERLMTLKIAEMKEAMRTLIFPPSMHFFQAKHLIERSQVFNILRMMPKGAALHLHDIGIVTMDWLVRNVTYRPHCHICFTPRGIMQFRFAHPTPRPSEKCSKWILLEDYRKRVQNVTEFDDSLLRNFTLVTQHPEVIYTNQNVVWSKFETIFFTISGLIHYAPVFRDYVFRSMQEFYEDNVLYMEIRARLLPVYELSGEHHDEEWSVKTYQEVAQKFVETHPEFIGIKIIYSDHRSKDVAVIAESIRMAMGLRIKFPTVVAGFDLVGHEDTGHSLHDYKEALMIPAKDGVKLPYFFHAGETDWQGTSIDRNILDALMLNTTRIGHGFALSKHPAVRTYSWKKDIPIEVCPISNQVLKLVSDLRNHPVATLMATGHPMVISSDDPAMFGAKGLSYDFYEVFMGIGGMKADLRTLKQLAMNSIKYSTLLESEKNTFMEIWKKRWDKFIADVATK", "conditions": "cited from earlier work"}, "[2]": {"biological_target": "T2, ADA1 (Homo sapiens, UniProt P00813)", "T2 sequence (P00813 1-363)": "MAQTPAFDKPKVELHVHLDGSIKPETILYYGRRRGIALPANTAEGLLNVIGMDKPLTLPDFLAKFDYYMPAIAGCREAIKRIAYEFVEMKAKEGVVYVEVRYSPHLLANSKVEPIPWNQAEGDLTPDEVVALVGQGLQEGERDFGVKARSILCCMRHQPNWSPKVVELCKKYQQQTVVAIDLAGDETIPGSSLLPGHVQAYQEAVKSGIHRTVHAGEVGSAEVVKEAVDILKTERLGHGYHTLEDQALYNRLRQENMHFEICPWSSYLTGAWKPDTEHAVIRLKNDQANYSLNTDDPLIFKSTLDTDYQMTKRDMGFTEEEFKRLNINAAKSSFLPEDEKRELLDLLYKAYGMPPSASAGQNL", "conditions": "cited from earlier work"}, "[3]": {"conditions": "37° C.; for Plasma incubated mean adenosine deaminase activity: 0.17 mg/ml in 25% BALB/c mouse plasma; for PBS incubated mean adenosine deaminase activity: 0.17 mg/ml in PBS 0.2% BSA"}, "[4]": {"experiment": "Heparin binding ELISA (heparin coated microtiter plate)", "conditions": "for Average OD450, heparin binding ELISA: 3 μM protein", "outline": "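Plates coated with 200 μg/mL heparin in Na2CO3 buffer pH 9.6 overnight at 4° C, then milk-blocked. FLAG-tagged rHuADA2 variants added at 3 μM for 2 h at room temperature. Bound protein detected with HRP-anti-FLAG and TMB, read as OD450.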"}, "[5]": {"experiment": "Heparin binding capture ELISA (biotin-heparin on streptavidin plate)", "conditions": "PEGylated and non-PEGylated forms (Table 22)", "protocol": "Heparin binding of PEGylated rHuADA2 or variants was assessed by capture ELISA. Binding of rHuADA1 was assessed as a negative control. 100 μL of 0.2 mg/mL biotin-heparin (Sigma-Aldrich, St. Louis, Mo.; Cat No. B9806-10MG) was added to a streptavidin coated 96-well plate (Thermo Fisher Scientific, Rockford, Ill.; Cat. No. 15520), and incubated at room temperature for 1 hour. The plate was washed 6 times with PBS. Then, 150 μL of […] rHuADA2 was added to the heparin coated plate, titrated in 3× serial dilutions, and incubated at room temperature for 2 hours. The plate was then washed 6 times with PBS. A 1000× dilution of goat HRP-anti-FLAG pAb (Abcam, Cambridge, UK; Cat. No. Ab1238) was added to the ELISA plate and incubated at room temperature for 1 hour. The ELISA plate was then washed 6 times with phosphate buffered saline with Tween (PBST) and developed with the 3,3′,5,5′-Tetramethylbenzidine (TMB) substrate solution (Pierce, Thermo Fisher Scientific, Rockford, Ill.) according the manufacturer's instructions and reading the optical density at 450 nm (OD450) on a plate reader."}, "[6]": {"conditions": "adenosine deaminase activity, cited from earlier work"}, "[7]": {"experiment": "Stability of ADA activity in plasma", "assay_type": "in vitro ADME, mouse", "conditions": "long incubation (e.g., 24 hours) in plasma", "protocol": "For therapeutic uses, such as for treatment of tumors or cancers, it is desirable to administer to the subject a dosage of ADA2 that will maintain plasma adenosine deaminase (ADA) activity for a sufficient time for therapeutic effect. […] The plasma stability of any ADA2 described herein, such as a wildtype, variant or conjugate, can be determined by measuring the changes in enzymatic activity and/or other physical properties, before and after incubation in plasma, e.g., ex vivo mammalian plasma.\nStability can be assessed in vitro or in vivo. For example, stability can be tested after exposure to plasma for a desired length of time, which can be empirically determined or selected by a skilled artisan depending on the desired length of time. For example, the incubation time can be at least 1 hour, such as at least 2, 3, 4, 5, 10, 15, 20, 24, 30, 36, 48, 60, 72 hours or more. The protein can be directly administered systemically, such as intravenously, and activity can be assessed. In other examples, the protein can be subject to appropriate incubation conditions in vitro. In one example, the stability of ADA activity of any ADA2 provided herein can be measured after incubation at 37° C., in 25% ex vivo plasma or serum, such as human or non-human plasma or serum, for example, mouse plasma. […]"}, "[8]": {"conditions": "cited from earlier work"}},
  "note": "Read-outs that look alike come from different tables or passages of the source.",
  "data": [
    {"molecule": "CCCCCC[C@H]([C@H](C)O)n1cnc2c(N)ncnc21", "note": "[EHNA, (+)-erythro-9-(2-hydroxy-3-nonyl)adenine]", "values": [
      {"measurement": "inhibition of ADA2", "setting": "[1]", "result": "does not inhibit ADA2"},
      {"measurement": "inhibition of ADA1", "setting": "[2]", "result": "selectively inhibits ADA1"}
    ]},
    {"molecule": "OC[C@H]1O[C@@H](n2cnc3c2N=CNC[C@H]3O)C[C@@H]1O", "note": "[2′-deoxycoformycin]", "values": [
      {"measurement": "inhibition of ADA2", "setting": "[1]", "result": "potent inhibitors"}
    ]},
    {"molecule": "OC[C@H]1O[C@@H](n2cnc3c2N=CNC[C@H]3O)[C@H](O)[C@@H]1O", "note": "[Coformycin]", "values": [
      {"measurement": "inhibition of ADA2", "setting": "[1]", "result": "potent inhibitors"},
      {"measurement": "inhibition of ADA1", "setting": "[2]", "result": "potent inhibitors"}
    ]},
    {"molecule": "WT ADA1: recombinant human adenosine deaminase 1 with Strep-tag, mature SEQ ID NO:66/67 (protein, listed as Homo sapiens, Strep-tag; mature ADA1 protein; mature ADA1-linker-Strep) chain 1: AQTPAFDKPKVELHVHLDGSIKPETILYYGRRRGIALPANTAEGLLNVIGMDKPLTLPDFLAKFDYYMPAIAGCREAIKRIAYEFVEMKAKEGVVYVEVRYSPHLLANSKVEPIPWNQAEGDLTPDEVVALVGQGLQEGERDFGVKARSILCCMRHQPNWSPKVVELCKKYQQQTVVAIDLAGDETIPGSSLLPGHVQAYQEAVKSGIHRTVHAGEVGSAEVVKEAVDILKTERLGHGYHTLEDQALYNRLRQENMHFEICPWSSYLTGAWKPDTEHAVIRLKNDQANYSLNTDDPLIFKSTLDTDYQMTKRDMGFTEEEFKRLNINAAKSSFLPEDEKRELLDLLYKAYGMPPSASAGQNL chain 2: AQTPAFDKPKVELHVHLDGSIKPETILYYGRRRGIALPANTAEGLLNVIGMDKPLTLPDFLAKFDYYMPAIAGCREAIKRIAYEFVEMKAKEGVVYVEVRYSPHLLANSKVEPIPWNQAEGDLTPDEVVALVGQGLQEGERDFGVKARSILCCMRHQPNWSPKVVELCKKYQQQTVVAIDLAGDETIPGSSLLPGHVQAYQEAVKSGIHRTVHAGEVGSAEVVKEAVDILKTERLGHGYHTLEDQALYNRLRQENMHFEICPWSSYLTGAWKPDTEHAVIRLKNDQANYSLNTDDPLIFKSTLDTDYQMTKRDMGFTEEEFKRLNINAAKSSFLPEDEKRELLDLLYKAYGMPPSASAGQNLSGSGSWSHPQFEK", "values": [
      {"measurement": "Plasma incubated mean adenosine deaminase activity", "setting": "[3]; 0 hr", "result": "71,663.6 mU/mL"},
      {"measurement": "PBS incubated mean adenosine deaminase activity", "setting": "[3]; 0 hr", "result": "61,077.0 mU/mL"},
      {"measurement": "Plasma incubated mean adenosine deaminase activity", "setting": "[3]; 4 hr", "result": "46,772.1 mU/mL"},
      {"measurement": "PBS incubated mean adenosine deaminase activity", "setting": "[3]; 4 hr", "result": "59,544.8 mU/mL"},
      {"measurement": "activity retained in PBS/BSA control", "setting": "[3]; 24 hours", "result": "greater than 80%"},
      {"measurement": "activity retained after treatment with plasma", "setting": "[3]; 24 hours, mouse plasma", "result": "less than 1%"},
      {"measurement": "Plasma incubated mean adenosine deaminase activity", "setting": "[3]; 24 hr", "result": 673.6, "unit": "mU/mL"},
      {"measurement": "PBS incubated mean adenosine deaminase activity", "setting": "[3]; 24 hr", "result": "50,287.9 mU/mL"},
      {"measurement": "Average OD450, heparin binding ELISA", "setting": "[4]; Set 1", "result": 0.07},
      {"measurement": "Average OD450, heparin binding ELISA", "setting": "[4]; Set 2", "result": 0.06},
      {"measurement": "Heparin Binding ELISA Average OD450", "setting": "[4]; single and S265N combination variants (Table 34)", "result": "−0.02"},
      {"measurement": "Average OD450, heparin binding capture ELISA", "setting": "[5]", "result": "<0.02"}
    ]},
    {"molecule": "ADA1: human adenosine deaminase 1, monomer, SEQ ID NO:12 (protein, listed as Homo sapiens, ADA1 protein; ref <300>: PUBLICATION INFORMATION:; ref <308>: DATABASE ACCESSION NUMBER: NCBI NP_000013.2; ref <309>: DATABASE ENTRY DATE: 2014-05-03) MAQTPAFDKPKVELHVHLDGSIKPETILYYGRRRGIALPANTAEGLLNVIGMDKPLTLPDFLAKFDYYMPAIAGCREAIKRIAYEFVEMKAKEGVVYVEVRYSPHLLANSKVEPIPWNQAEGDLTPDEVVALVGQGLQEGERDFGVKARSILCCMRHQPNWSPKVVELCKKYQQQTVVAIDLAGDETIPGSSLLPGHVQAYQEAVKSGIHRTVHAGEVGSAEVVKEAVDILKTERLGHGYHTLEDQALYNRLRQENMHFEICPWSSYLTGAWKPDTEHAVIRLKNDQANYSLNTDDPLIFKSTLDTDYQMTKRDMGFTEEEFKRLNINAAKSSFLPEDEKRELLDLLYKAYGMPPSASAGQNL", "values": [
      {"measurement": "pH optimum", "setting": "[6]", "result": "~7.5"},
      {"measurement": "pH optimum", "setting": "[6]; listed as ADA′", "result": 7.5},
      {"measurement": "stability in plasma", "setting": "[7]", "result": "substantially less stable"},
      {"measurement": "Km", "setting": "[8]; for adenosine, wild-type enzyme in humans, read-out: Km", "result": "~52", "unit": "µM"},
      {"measurement": "Km", "setting": "[8]; read-out: Km for adenosine", "result": "~100", "unit": "µM"}
    ]}
  ]
}
